This note sets out measurements from the supplement of paper PMC7877785.

± gives the uncertainty stated by the source.

The data set is described as follows: self-splicing fitness, log relative to wild type (ln ratio); higher = more splicing; Tetrahymena group I intron in knt gene, E. coli kanamycin selection, DiMSum; sequences stand for … in CUCUCU…GGAGGGAAAAGUUAUCAGGCAUGCACCUGGUAGCUAGUCUUUAAACCAAUAGAUUGCAUCGGUUUAAAAGGCAAGACCGUCAAAUUGCGGGAAAGGGGUCAACAGCCGUUCAGUACCAAGUCUCAGGGGAAACUUUGAGAUGGCCUUGCAAAGGGUAUGGUAAUAAGCUGACGGACAUGGUCCUAACCACGCAGCCAAGUCCUAAGUCAACAGAUCUUCUGUUGAUAUGGAUGCAGUUCACAGACUAAAUGUCGGUCGGGGAAGAUGUAUUCUUCUCAUAAGAUAUAGUCGGACCUCUCCUUAAUGGGAGCUAGCGGAUGAAGUGAUGCAACACUGGAGCCGCUGGGAACUAAUUUGUAUGCGAAAGUAUAUUGAUUAGUUUUGGAGUACUCGUGGUCG
Put shortly: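 Six replicate transformations of E. coli BL21(DE3) with a pET-22b(+) library were grown overnight at 37°C or 30°C. The library randomised all eight P1ex-region intron nucleotides, the intron lying in the knt kanamycin-resistance gene, and plates were LB agar with or without 25 μg/mL kanamycin plus 100 μg/mL carbenicillin, 50 μM IPTG and 0.2% rhamnose. Pooled colonies were amplicon-sequenced on an Illumina HiSeq 2500, and fitness is the DiMSum error-weighted combination of wild-type-normalised replicate fold changes, kanamycin versus none.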

With CAGUAGCAAUAUUACGUGUG, the “self-splicing fitness (ln)” value (30 °C) was -1.64 ± 0.062 and the “self-splicing fitness (ln)” value (37 °C) was -1.23 ± 0.085.

As for CAGUAGCAAUAUUACGUUGG, the “self-splicing fitness (ln)” value reads like this: (30 °C) -1.56 ± 0.075; (37 °C) -0.932 ± 0.1. In the same order, the values of CAUAAGCAAUAUUACGAGUG are -2.76 ± 0.19 and -2.86 ± 0.2. For CAUAAGCAAUAUUACGAUUU the same measures were -2.47 ± 0.13 and -2.19 ± 0.16. For CAUAAGCAAUAUUACGCACC the same measures were -2.33 ± 0.4 and -0.0667 ± 0.48.

For CAUAAGCAAUAUUACGCACU, the “self-splicing fitness (ln)” value was -2.12 ± 0.11 (30 °C) and -0.81 ± 0.11 (37 °C).

Take CAUAAGCAAUAUUACGCAGA: the “self-splicing fitness (ln)” value reads like this: (30 °C) -2.5 ± 0.17; (37 °C) -2.51 ± 0.17.

Consider CAUAAGCAAUAUUACGCCAU, for which the “self-splicing fitness (ln)” value by setting is: (30 °C) -1.36 ± 0.15; (37 °C) -2.6 ± 0.34.

With CAUAAGCAAUAUUACGCCGA, where the note is “37 °C”, the “self-splicing fitness (ln)” value is -1.71 ± 0.48.

In the case of CAUAAGCAAUAUUACGCCUA, the “self-splicing fitness (ln)” value is -2.46 ± 0.35 (30 °C) and -0.984 ± 0.21 (37 °C). In the same order, the values of CAUAAGCAAUAUUACGCGGC are -3.43 ± 0.28 and -2.53 ± 0.23. For CAUAAGCAAUAUUACGCUAU the same measures were -2.93 ± 0.28 and -2.99 ± 0.4.

On to CAUAAGCAAUAUUACGCUUG, for which the “self-splicing fitness (ln)” value runs as follows: (30 °C) -3.08 ± 0.29; (37 °C) -3.01 ± 0.25.

In the case of CAUAAGCAAUAUUACGUACA, the “self-splicing fitness (ln)” value was -3.09 ± 0.36 (30 °C) and -2.37 ± 0.19 (37 °C). Turning to CAUAAGCAAUAUUACGUCCG, the “self-splicing fitness (ln)” value (30 °C) is -0.727 ± 0.081 and the “self-splicing fitness (ln)” value (37 °C) is 1.11 ± 0.12. For CAUAAGCAAUAUUACGUCUA the same measures were -2.41 ± 0.14 and -1.4 ± 0.11. Consider CAUAAGCAAUAUUACGUGUA, for which the “self-splicing fitness (ln)” value runs as follows: (30 °C) -2.6 ± 0.14; (37 °C) -1.77 ± 0.18.

For CAUAAGCAAUAUUACGUUAC, the “self-splicing fitness (ln)” value by setting is: (30 °C) -3.85 ± 0.24; (37 °C) -2.15 ± 0.24. CAUCAGCAAUAUUACGAACU: the “self-splicing fitness (ln)” value is, setting by setting: (30 °C) -3.37 ± 0.21; (37 °C) -0.499 ± 0.17. CAUCAGCAAUAUUACGACAU: the “self-splicing fitness (ln)” value is, setting by setting: (30 °C) -2.905 ± 0.017; (37 °C) -1.51 ± 0.033. In the same order, the values of CAUCAGCAAUAUUACGACCU are -2.49 ± 0.31 and -1.17 ± 0.29.

For the sequence CAUCAGCAAUAUUACGACGC, the “self-splicing fitness (ln)” value (30 °C) was -2.37 ± 0.23 and the “self-splicing fitness (ln)” value (37 °C) was -1.23 ± 0.26. CAUCAGCAAUAUUACGACUU: the “self-splicing fitness (ln)” value by setting is: (30 °C) -1.85 ± 0.081; (37 °C) -0.408 ± 0.081. In the same order, the values of CAUCAGCAAUAUUACGAUAG are -0.277 ± 0.1 and -0.0749 ± 0.14. For CAUCAGCAAUAUUACGCAGU the same measures were -2.02 ± 0.089 and -1.78 ± 0.097. For CAUCAGCAAUAUUACGCCAA the same measures were -1.99 ± 0.25 and -1.81 ± 0.24. CAUCAGCAAUAUUACGCCAG: the “self-splicing fitness (ln)” value runs as follows: (30 °C) -0.613 ± 0.068; (37 °C) -0.553 ± 0.1. For CAUCAGCAAUAUUACGCGAU the same measures were -3.69 ± 0.23 and -2.86 ± 0.32. As for CAUCAGCAAUAUUACGCGCU, the “self-splicing fitness (ln)” value (37 °C) is -1.87 ± 0.29. As to CAUCAGCAAUAUUACGCUGA, the “self-splicing fitness (ln)” value is -3.2 ± 0.22 (30 °C) and -2.24 ± 0.27 (37 °C). In the same order, the values of CAUCAGCAAUAUUACGCUGG are -3.62 ± 0.19 and -2.97 ± 0.2. In the same order, the values of CAUCAGCAAUAUUACGGAAG are -0.623 ± 0.054 and -0.416 ± 0.069. As to CAUCAGCAAUAUUACGGGAU, the “self-splicing fitness (ln)” value (37 °C) was -1.88 ± 0.22. Regarding CAUCAGCAAUAUUACGGUUA, the “self-splicing fitness (ln)” value runs as follows: (30 °C) -0.767 ± 0.1; (37 °C) -0.102 ± 0.1. In the same order, the values of CAUCAGCAAUAUUACGUAAA are -1.39 ± 0.11 and -0.891 ± 0.13. In the same order, the values of CAUCAGCAAUAUUACGUAAC are -2.81 ± 0.15 and -2.01 ± 0.24.

As for CAUCAGCAAUAUUACGUAAU, the “self-splicing fitness (ln)” value runs as follows: (30 °C) -2.56 ± 0.09; (37 °C) -1.4 ± 0.1. In the same order, the values of CAUCAGCAAUAUUACGUAGA are -1.06 ± 0.065 and -0.309 ± 0.088.

Regarding CAUCAGCAAUAUUACGUAGG, the “self-splicing fitness (ln)” value was -0.284 ± 0.05 (30 °C) and 0.412 ± 0.077 (37 °C).

For the sequence CAUCAGCAAUAUUACGUCGU, the “self-splicing fitness (ln)” value is -1.93 ± 0.097 (30 °C) and -1.19 ± 0.11 (37 °C). In the same order, the values of CAUCAGCAAUAUUACGUGAA are -0.729 ± 0.055 and -0.211 ± 0.09.

As to CAUCAGCAAUAUUACGUUUC, the “self-splicing fitness (ln)” value was -2.76 ± 0.17 (30 °C) and -1.82 ± 0.16 (37 °C). Take CAUGAGCAAUAUUACGAACU: the “self-splicing fitness (ln)” value (30 °C) was -3.53 ± 0.19 and the “self-splicing fitness (ln)” value (37 °C) is -2.95 ± 0.26. For CAUGAGCAAUAUUACGAAUG the same measures were -3.67 ± 0.2 and -2.33 ± 0.16. As to CAUGAGCAAUAUUACGACAC, the “self-splicing fitness (ln)” value (37 °C) was -1.19 ± 0.31. CAUGAGCAAUAUUACGAGCC: the “self-splicing fitness (ln)” value (30 °C) was -3.05 ± 0.41.

In the case of CAUGAGCAAUAUUACGAUGC, the “self-splicing fitness (ln)” value reads like this: (30 °C) -3.19 ± 0.17; (37 °C) -1.89 ± 0.2. Turning to CAUGAGCAAUAUUACGAUUG, the “self-splicing fitness (ln)” value (30 °C) is -4.17 ± 0.26 and the “self-splicing fitness (ln)” value (37 °C) is -3.15 ± 0.24. As to CAUGAGCAAUAUUACGCACA, the “self-splicing fitness (ln)” value was -2.8 ± 0.2 (30 °C) and -2.44 ± 0.23 (37 °C). For CAUGAGCAAUAUUACGCAGA the same measures were -4.53 ± 0.32 and -1.69 ± 0.15. In the same order, the values of CAUGAGCAAUAUUACGCGCA are -2.89 ± 0.19 and -1.31 ± 0.16. In the same order, the values of CAUGAGCAAUAUUACGCGGG are -1.45 ± 0.14 and -2.46 ± 0.28. Turning to CAUGAGCAAUAUUACGCGGU, the “self-splicing fitness (ln)” value is, setting by setting: (30 °C) -4.59 ± 0.33; (37 °C) -2.33 ± 0.21. In the same order, the values of CAUGAGCAAUAUUACGGAAA are -3.26 ± 0.29 and -2.17 ± 0.24. In the same order, the values of CAUGAGCAAUAUUACGGCUU are -2.99 ± 0.17 and -2.92 ± 0.29. In the same order, the values of CAUGAGCAAUAUUACGGGCA are -2.43 ± 0.18 and -2.21 ± 0.28. As for CAUGAGCAAUAUUACGGGGG, the “self-splicing fitness (ln)” value reads like this: (30 °C) -2.64 ± 0.23; (37 °C) -2.64 ± 0.3.

Take CAUGAGCAAUAUUACGGUCG: the “self-splicing fitness (ln)” value by setting is: (30 °C) -0.34 ± 0.091; (37 °C) 0.0674 ± 0.1.

Turning to CAUGAGCAAUAUUACGGUUA, the “self-splicing fitness (ln)” value is, setting by setting: (30 °C) -2.75 ± 0.23; (37 °C) -3.26 ± 0.32. For CAUGAGCAAUAUUACGUGUG the same measures were -3.67 ± 0.17 and -3.09 ± 0.16. Consider CAUUAGCAAUAUUACGAACA, for which the “self-splicing fitness (ln)” value is, setting by setting: (30 °C) -3.7 ± 0.42; (37 °C) -0.317 ± 0.2.
